Where a chain is given by its changes, count along the chain named. Names and notes keep the numbering of the source.
Legend:
[1] = molecular target: H2 HA A/Singapore/1/1957, recombinant soluble trimer (influenza A virus)
[2] = molecular target: H9 HA A/Hong Kong/1073/99, recombinant (influenza A virus)
[3] = molecular target: H14 HA A/mallard duck/Astrakhan/263/1982, recombinant (influenza A virus)
[4] = molecular target: H15 HA A/shearwater/Western Australia/2576/1979, recombinant (influenza A virus)
[5] = molecular target: H5 HA A/Indonesia/05/2005 (H5N1), recombinant (influenza A virus)
[6] = molecular target: H7 HA A/Shanghai/2/2013 (H7N9), recombinant uncleaved trimer (influenza A virus)
[7] = molecular target: H12 HA A/duck/Alberta/60/1976, recombinant (influenza A virus)
[8] = molecular target: H3 HA A/Hong Kong/1/1968 (H3N2), recombinant soluble trimer (influenza A virus), Q91MA7; conditions: remark: other sources report otherwise

B1: rFluA-20 heavy chain mutant Y34A (antibody, V domains shown)
VH: QVQLQESGPGLVKPSETLSLTCSVSGVSVTSDIAYWTWIRQPPGKGLEWIGYIFYNGDTNYNPSLKSRVTMSIDTSKNEFSLRLTSVTAADTAVYFCARGTEDLGYCSSGSCPNHWGQGTLVTVSS
VL: DIQMTQSPSSLSASIGDRVTITCRPSQNIRSFLNWFQHKPGKAPKLLIYAASNLQSGVPSRFSGSGSGTEFTLTIRSLQPEDFATYYCQQSYNTPPTFGQGTKVEIK
Question: Which results are given for B1?
Answer: EC50 [1]: 0.11 µg/mL; EC50 [2]: 0.21 µg/mL; EC50 [3]: 0.54 µg/mL; EC50 [4]: 0.1 µg/mL; EC50 relative to wild type rFluA-20 [5]: > 100 fold; EC50 [6]: 0.44 µg/mL; EC50 [7]: 0.05 µg/mL

B2: rFluA-20 heavy chain mutant T96A (antibody, V domains shown)
VH: B1 VH with A34Y, T101A
VL: B1 VL
Question: With B2 as the binder, how does the EC50 [1] read?
Answer: 0.07 µg/mL

Question: What about the EC50 [2] of the same binder?
Answer: 0.1 µg/mL

Question: What about the EC50 [3] of the same binder?
Answer: 0.23 µg/mL

Question: What about the EC50 [4] of the same binder?
Answer: 0.07 µg/mL

Question: What about the EC50 [5] of the same binder?
Answer: 0.11 µg/mL

Question: And the EC50 [6]?
Answer: 0.37 µg/mL

Question: And the EC50 [7]?
Answer: 0.04 µg/mL

B3: rFluA-20 heavy chain mutant E97A (antibody, V domains shown)
VH: B1 VH with A34Y, E102A
VL: B1 VL
Question: What does the source list for B3?
Answer: EC50 [1]: 0.13 µg/mL; EC50 [2]: 0.36 µg/mL; EC50 [3]: 0.64 µg/mL; EC50 [4]: 0.12 µg/mL; EC50 relative to wild type rFluA-20 [5]: > 100 fold; EC50 [6]: 1 µg/mL; EC50 [7]: 0.06 µg/mL

B4: rFluA-20 heavy chain mutant Y100aA (antibody, V domains shown)
VH: B1 VH with A34Y, Y106A
VL: B1 VL
Question: With B4 as the binder, how does the EC50 relative to wild type rFluA-20 [1] read?
Answer: > 100 fold

Question: And the EC50 relative to wild type rFluA-20 [2]?
Answer: > 100 fold

Question: And the EC50 relative to wild type rFluA-20 [3]?
Answer: > 100 fold

Question: And the EC50 relative to wild type rFluA-20 [4]?
Answer: > 100 fold

Question: And the EC50 relative to wild type rFluA-20 [5]?
Answer: > 100 fold

Question: What about the EC50 relative to wild type rFluA-20 [6] of the same binder?
Answer: > 100 fold

Question: And the EC50 relative to wild type rFluA-20 [7]?
Answer: > 100 fold

B5: rFluA-20 light chain mutant Q55A (antibody, V domains shown)
VH: B1 VH with A34Y
VL: B1 VL with Q55A
Question: Which EC50 [8] does the source give for B5 here?
Answer: 0.08 µg/mL

— US20220387578A1
